B1: Homeobox protein cut-like 1, residues 548 to 629; numbered along this chain, P39880 (parent)
chain: GEEMDTAEIARQVKEQLIKHNIGQRIFGHYVLGLSQGSVSEILARPKPWNKLTVRGKEPFHKMKQFLSDEQNILALRSIQGR

Variants of: B1
Assay: abundance fitness (aPCA) (normalised: wild type 0, dead -1); higher = more abundant; growth selection in yeast, the domain comes from the species named
Conditions: Homo sapiens

Abundance fitness, by site and new letter:
Q36: V -0.025, T -0.034, A 0.021, N -0.048, C -0.157, L 0.008, I -0.059, H -0.017, Y -0.045, M -0.104, E 0.055, P 0.071, D 0.056, K 0.025, R -0.049, W -0.039
G37: L -0.022, F -0.075, A 0.037, M 0.002, W -0.057, P -0.084, R 0.029, T 0.063, K 0.091, I -0.17, S 0.024, N -0.016, Q 0.092, Y -0.034, H 0.006, E 0.136, C -0.013, V -0.051
L43: N -1, R -1, W -0.743, M -0.235, P -0.926, D -0.68, A -0.772, E -0.89, Y -0.699, S -0.865, V -0.769, H -1.04, K -1.03, Q -0.807, T -0.922, G -0.929, I -0.534, F -0.146, C -0.843
E41: Y -0.412, S -0.265, W -0.522, D -0.061, I -0.477, N -0.206, G -0.293, M -0.377, A -0.13, H -0.353, L -0.345, K -0.727, T -0.243, C -0.219, V -0.433, R -0.851, Q -0.204, F -0.758
H29: T -0.022, Y -0.125, Q 0.038, P -0.621, W -0.102, R -0.051, S -0.081
V31: N -0.713, Y -0.2, H -0.988, L -0.391, T -0.488, C -0.179, D -0.839, S -0.806, Q -0.882, R -0.947, M -0.431, E -0.681, G -0.766, W -0.133, K -1.04
V39: S -0.316, G -0.725, N -0.697, H -0.844, Q -0.676, T 0.086, K -0.898, D -0.732, P -0.642, W -0.33, F -0.165, L -0.101, M -0.249, I -0.212, E -0.456, C -0.025, R -0.915, A -0.177, Y -0.574
R45: N -0.002, V -0.228, E -0.009, S 0.041, Y -0.085, Q -0.021, G -0.296, P -0.797, H 0.103, W -0.201, K -0.006, C -0.001, A 0.03, M -0.049, T -0.003, L -0.274, F 0.008, I -0.361, D -0.033
L32: A -0.732, G -0.839, K -0.986, C -0.281, M -0.317, H -0.723, P -0.894, S -0.793, D -0.773, Y -1.01, V -0.41, R -0.943, N -0.768, E -0.792, I -0.562, F -0.988, T -0.741, Q -0.791
K47: V -0.015, H -0.276, R -0.072, F -0.338, S -0.126, T -0.019, N -0.339, E -0.037, W -0.329, M -0.06, Y -0.432, G -0.288, Q 0.03, I -0.086, L 0.028, A -0.116, D -0.08
S35: L -0.384, M -0.278, C -0.086, D 0.154, K -0.035, Q -0.029, V -0.236, A -0.112, F -0.126, G -0.039, R -0.209, N -0.081, W -0.311, H -0.238, P 0.062, I -0.308, Y -0.298
L34: G -0.461, N -0.362, C -0.047, S -0.349, K -0.346, D -0.274, Y -0.26, W -0.264, V -0.151, F -0.167, M 0.09, P -0.519, A -0.228, T -0.213, R -0.393, Q -0.173, I -0.052
Y30: K -0.091, V -0.053, H 0.014, Q -0.099, M -0.122, C -0.065, E -0.034, T -0.147, I -0.024, N -0.282, L -0.111, G -0.552, D -0.337, F -0.126, W -0.184, R -0.201, A -0.082, P -0.742
I42: Y -0.351, E -0.707, W -0.513, R -1, P -0.819, F -0.242, C -0.253, A -0.36, K -0.747, L -0.013, N -0.633, V -0.104, M 0.004, D -0.723, T -0.375, Q -0.564
S38: E 0.141, P -0.079, V 0.097, A 0.072, H -0.031, N -0.027, M 0.11, D 0.125, I -0.008, W -0.273, F -0.181, L -0.005, T -0.005, R -0.711, Q 0.113, Y -0.112, G -0.049, C 0.025, K 0.061
P48: C -0.268, A -0.119, M -0.27, D -0.267, E -0.126, H -0.16, G -0.539, N -0.446, K -0.452, I -0.438, F -0.513
P46: R -0.925, H -0.746, E -0.779, Y -0.594, S -0.652, L -0.356, N -0.685, F -0.725, Q -0.482, W -0.356, K -0.938, A -0.346, V -0.37, D -0.854, M -0.459, G -0.77, I -0.26
G33: H -0.111, N -0.106, F -0.883, W -0.969, K -0.217, Y -1.16, R -0.351, V -0.895, D -0.268, A -0.341, Q -0.221, E -0.312, S -0.297, T -0.798, L -0.822, C -0.4, P -0.882, I -1.15
S40: M -0.051, Q 0.017, L -0.101, I -0.117, T 0.055, W -0.131, Y -0.102, K 0.032, H 0.123, C -0.063, E 0.13, F -0.162, G -0.06, P -0.258, D 0.078, N -0.018, A 0.057
A44: Q 0.053, W -0.176, R -0.106, E 0.08, Y -0.099, K -0.094, F -0.082, M 0.047, C -0.134, I -0.159, P -0.709, L -0.027, V -0.137, D 0.056, T 0.057, G -0.038, S 0.034, N 0.073

Source: the Human Domainome abundance scans (Beltran et al. 2025)
